Source: the supplement of paper PMC7877785
± gives the uncertainty stated by the source.

Assay: self-splicing fitness, log relative to wild type (ln ratio); higher = more splicing; Tetrahymena group I intron in knt gene, E. coli kanamycin selection, DiMSum; sequences stand for … in CUCUCU…GGAGGGAAAAGUUAUCAGGCAUGCACCUGGUAGCUAGUCUUUAAACCAAUAGAUUGCAUCGGUUUAAAAGGCAAGACCGUCAAAUUGCGGGAAAGGGGUCAACAGCCGUUCAGUACCAAGUCUCAGGGGAAACUUUGAGAUGGCCUUGCAAAGGGUAUGGUAAUAAGCUGACGGACAUGGUCCUAACCACGCAGCCAAGUCCUAAGUCAACAGAUCUUCUGUUGAUAUGGAUGCAGUUCACAGACUAAAUGUCGGUCGGGGAAGAUGUAUUCUUCUCAUAAGAUAUAGUCGGACCUCUCCUUAAUGGGAGCUAGCGGAUGAAGUGAUGCAACACUGGAGCCGCUGGGAACUAAUUUGUAUGCGAAAGUAUAUUGAUUAGUUUUGGAGUACUCGUGGUCG
How it was run: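 Library with all eight P1ex-region intron nucleotides randomised, intron inside the knt kanamycin-resistance gene on pET-22b(+), in E. coli BL21(DE3). Cells grew overnight at 37°C or 30°C on LB agar with or without 25 μg/mL kanamycin (plus 100 μg/mL carbenicillin, 50 μM IPTG, 0.2% rhamnose), in six replicate transformations. Pooled colonies were amplicon-sequenced on Illumina HiSeq 2500. DiMSum fitness is the error-weighted combination of wild-type-normalised replicate fold changes, kanamycin versus none.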

Sequence	self-splicing fitness (ln) (30 °C)	self-splicing fitness (ln) (37 °C)
CAUAAGCAAUAUUACGCAUG	-1.55 ± 0.12	-2.27 ± 0.23
CAUAAGCAAUAUUACGCCAG	-1.42 ± 0.14	-0.932 ± 0.19
CAUAAGCAAUAUUACGCCGG	-0.252 ± 0.13	-0.546 ± 0.2
CAUAAGCAAUAUUACGCGAG	-1.99 ± 0.097	-1.39 ± 0.085
CAUAAGCAAUAUUACGCGCG	-0.536 ± 0.14	0.0409 ± 0.15
CAUAAGCAAUAUUACGCGUU	-3.3 ± 0.15	-1.55 ± 0.13
CAUAAGCAAUAUUACGCUAG	-3.34 ± 0.16	-2.4 ± 0.15
CAUAAGCAAUAUUACGCUGU	-3.79 ± 0.27	-1.05 ± 0.15
CAUAAGCAAUAUUACGGAGA	–	-3.12 ± 0.38
CAUAAGCAAUAUUACGGAUC	–	-1.38 ± 0.23
CAUAAGCAAUAUUACGGCAU	-4.06 ± 0.31	-1.15 ± 0.2
CAUAAGCAAUAUUACGGCGG	0.324 ± 0.087	-0.0169 ± 0.12
CAUAAGCAAUAUUACGGCUA	-1.56 ± 0.13	-1.51 ± 0.12
CAUAAGCAAUAUUACGGCUC	-2.88 ± 0.44	-1.88 ± 0.43
CAUAAGCAAUAUUACGGUAC	-2.89 ± 0.19	-2.14 ± 0.29
CAUAAGCAAUAUUACGGUCA	-2.41 ± 0.24	-1.89 ± 0.2
CAUAAGCAAUAUUACGUCAC	-3.86 ± 0.29	–
CAUAAGCAAUAUUACGUGAA	-3.45 ± 0.2	-2.14 ± 0.18
CAUAAGCAAUAUUACGUGUC	-3.62 ± 0.2	-2.55 ± 0.17
CAUAAGCAAUAUUACGUUCG	-0.99 ± 0.079	0.184 ± 0.09
CAUCAGCAAUAUUACGAAAC	-3.66 ± 0.47	-3.45 ± 0.32
CAUCAGCAAUAUUACGAACG	0.463 ± 0.11	0.656 ± 0.11
CAUCAGCAAUAUUACGACUG	-0.425 ± 0.084	-0.238 ± 0.098
CAUCAGCAAUAUUACGAGCG	-0.443 ± 0.059	0.466 ± 0.072
CAUCAGCAAUAUUACGAUCA	-0.959 ± 0.11	-0.294 ± 0.13
CAUCAGCAAUAUUACGAUGG	-0.479 ± 0.057	-0.173 ± 0.074

Sequence	self-splicing fitness (ln) (30 °C)	self-splicing fitness (ln) (37 °C)
CAUCAGCAAUAUUACGAUUG	-1.45 ± 0.054	-0.782 ± 0.071
CAUCAGCAAUAUUACGCAGA	-2.69 ± 0.21	-2.86 ± 0.31
CAUCAGCAAUAUUACGCAGG	-0.441 ± 0.062	-1.15 ± 0.079
CAUCAGCAAUAUUACGCCAC	-2.77 ± 0.46	-2.22 ± 0.43
CAUCAGCAAUAUUACGCCAU	-3.98 ± 0.35	-2.97 ± 0.24
CAUCAGCAAUAUUACGCGCG	0.0702 ± 0.07	0.438 ± 0.084
CAUCAGCAAUAUUACGCUAA	-2.1 ± 0.17	-1.69 ± 0.16
CAUCAGCAAUAUUACGCUGU	-3.65 ± 0.18	-1.84 ± 0.15
CAUCAGCAAUAUUACGGAUA	-0.862 ± 0.06	0.0386 ± 0.074
CAUCAGCAAUAUUACGGAUU	-0.959 ± 0.062	-0.143 ± 0.077
CAUCAGCAAUAUUACGGCAC	-3.89 ± 0.24	-2.56 ± 0.24
CAUCAGCAAUAUUACGGCUU	-2.91 ± 0.14	-1.75 ± 0.17
CAUCAGCAAUAUUACGGGGG	-1.94 ± 0.084	-0.816 ± 0.1
CAUCAGCAAUAUUACGGUCU	-2.82 ± 0.1	-2.22 ± 0.15
CAUCAGCAAUAUUACGUCAC	-3.06 ± 0.15	-2.68 ± 0.23
CAUCAGCAAUAUUACGUGGA	-3.6 ± 0.19	-2.05 ± 0.12
CAUCAGCAAUAUUACGUGGC	-4.41 ± 0.27	-2.72 ± 0.19
CAUCAGCAAUAUUACGUGUA	-1.18 ± 0.083	-0.43 ± 0.079
CAUCAGCAAUAUUACGUGUU	-2.31 ± 0.12	-2.79 ± 0.24
CAUCAGCAAUAUUACGUUAC	-4.12 ± 0.39	-1.92 ± 0.22
CAUCAGCAAUAUUACGUUCU	-3.82 ± 0.2	-3.32 ± 0.23
CAUCAGCAAUAUUACGUUUG	-1.57 ± 0.064	-0.71 ± 0.089
CAUGAGCAAUAUUACGACUU	-3.95 ± 0.32	-3.81 ± 0.36
CAUGAGCAAUAUUACGAGCA	-3.68 ± 0.31	-2.56 ± 0.23
CAUGAGCAAUAUUACGAUAU	-3.32 ± 0.25	-2 ± 0.31
CAUGAGCAAUAUUACGAUUC	-3.18 ± 0.21	-1.66 ± 0.19

Sequence	self-splicing fitness (ln) (30 °C)	self-splicing fitness (ln) (37 °C)
CAUGAGCAAUAUUACGCAAA	-3.92 ± 0.38	-1.97 ± 0.24
CAUGAGCAAUAUUACGCAUU	-2.88 ± 0.19	-2.03 ± 0.24
CAUGAGCAAUAUUACGCCAG	-1.94 ± 0.19	-1.84 ± 0.24
CAUGAGCAAUAUUACGCGCG	-1.29 ± 0.15	0.0218 ± 0.14
CAUGAGCAAUAUUACGCUAG	-3.07 ± 0.21	-2.82 ± 0.23
CAUGAGCAAUAUUACGCUCC	–	-1.38 ± 0.48
CAUGAGCAAUAUUACGCUGA	-3.24 ± 0.18	-3.09 ± 0.23
CAUGAGCAAUAUUACGGGGU	-3.25 ± 0.3	-3.38 ± 0.33
CAUGAGCAAUAUUACGGUGG	-1.49 ± 0.078	-0.665 ± 0.088
CAUGAGCAAUAUUACGGUUC	-3.65 ± 0.46	-2.13 ± 0.38
CAUGAGCAAUAUUACGUCCU	-4.2 ± 0.32	-1.88 ± 0.2
CAUGAGCAAUAUUACGUCUA	-2.57 ± 0.17	-2.28 ± 0.21
CAUGAGCAAUAUUACGUGAA	-3.86 ± 0.3	-2.53 ± 0.29
CAUGAGCAAUAUUACGUGCU	-3.6 ± 0.38	-2.39 ± 0.32
CAUGAGCAAUAUUACGUGUU	-3.85 ± 0.16	-2.31 ± 0.15
CAUGAGCAAUAUUACGUUGG	-2.69 ± 0.17	-1.81 ± 0.15
CAUGAGCAAUAUUACGUUUU	-3.66 ± 0.21	-2.86 ± 0.24
CAUUAGCAAUAUUACGAAUA	-2.12 ± 0.14	-0.64 ± 0.13
CAUUAGCAAUAUUACGAGUU	-3.7 ± 0.17	-2.67 ± 0.18
CAUUAGCAAUAUUACGAUAA	-2.24 ± 0.2	-1.75 ± 0.23
CAUUAGCAAUAUUACGAUCG	0.173 ± 0.082	0.274 ± 0.12
CAUUAGCAAUAUUACGAUUC	-2.1 ± 0.18	-0.901 ± 0.17
CAUUAGCAAUAUUACGCCUA	–	-1.73 ± 0.31
CAUUAGCAAUAUUACGCGCU	-2.9 ± 0.21	-1.51 ± 0.26
